Laboratory results: paper PMC3148273

Substrate: CCCCCCCCCCCCC/C=C/[C@@H](O)[C@@H](N)CO
Experiment: purified SK2 Michaelis-Menten kinetics with [γ-32P]ATP
Assay type: biochemical, Homo sapiens
Conditions: Mg2+

B1: sphingosine kinase 2 (SK2) (Homo sapiens) (protein)
chain: MNGHLEAEEQQDQRPDQELTGSWGHGPRSTLVRAKAMAPPPPPLAASTPLLHGEFGSYPARGPRFALTLTSQALHIQRLRPKPEARPRGGLVPLAEVSGCCTLRSRSPSDSAAYFCIYTYPRGRRGARRRATRTFRADGAATYEENRAEAQRWATALTCLLRGLPLPGDGEITPDLLPRPPRLLLLVNPFGGRGLAWQWCKNHVLPMISEAGLSFNLIQTERQNHARELVQGLSLSEWDGIVTVSGDGLLHEVLNGLLDRPDWEEAVKMPVGILPCGSGNALAGAVNQHGGFEPALGLDLLLNCSLLLCRGGGHPLDLLSVTLASGSRCFSFLSVAWGFVSDVDIQSERFRALGSARFTLGTVLGLATLHTYRGRLSYLPATVEPASPTPAHSLPRAKSELTLTPDPAPPMAHSPLHRSVSDLPLPLPQPALASPGSPEPLPILSLNGGGPELAGDWGGAGDAPLSPDPLLSSPPGSPKAALHSPVSEGAPVIPPSSGLPLPTPDARVGASTCGPPDHLLPPLGTPLPPDWVTLEGDFVLMLAISPSHLGADLVAAPHARFDDGLVHLCWVRSGISRAALLRLFLAMERGSHFSLGCPQLGYAAARAFRLEPLTPRGVLTVDGEQVEYGPLQAQMHPGIGTLLTGPPGCPGREP
  Km: 10.5 µM
